Assay results from CN114573710A.

Key:
[1] = biological target: CD47 on lymphoma cell lines Raji, Daudi and Romas (UniProt Q08722); assay: flow cytometry, Daudi cells incubated with CD19-s47-CART supernatant, detected with anti-HA-APC
[2] = biological target: CD47 on lymphoma cell lines Raji, Daudi and Romas (UniProt Q08722); assay: flow cytometry, Raji cells incubated with CD19-s47-CART supernatant, detected with anti-HA-APC
[3] = biological target: CD47 on lymphoma cell lines Raji, Daudi and Romas (UniProt Q08722); assay: flow cytometry, Romas cells incubated with CD19-s47-CART supernatant, detected with anti-HA-APC

Measured: 结合率

Chain of UniProt Q08722 (Q08722 19-323 limits assumed): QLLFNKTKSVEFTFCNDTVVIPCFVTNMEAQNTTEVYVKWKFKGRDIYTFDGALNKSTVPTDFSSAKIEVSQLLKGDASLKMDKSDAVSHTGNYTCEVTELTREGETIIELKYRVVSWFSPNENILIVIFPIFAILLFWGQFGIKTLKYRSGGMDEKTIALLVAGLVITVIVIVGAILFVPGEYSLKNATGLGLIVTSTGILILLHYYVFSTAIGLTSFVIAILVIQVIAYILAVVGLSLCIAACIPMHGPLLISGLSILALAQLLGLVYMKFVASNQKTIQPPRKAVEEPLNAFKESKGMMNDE

B1: 外泌蛋白s47 (抗CD47单链抗体, CD47 ScFv, 末尾连接HA标签) (scFv)
scFv: DVVMTQSPLSLPVTPGEPASISCRSSQSIVYSNGNTYLGWYLQKPGQSPKLLIYKVSNRFSGVPDRFSGSGSGTDFTLKISRVEAEDVGVYHCFQGSHVPYTFGGGTKVEIKGGGGSGGGGSGGGGSQVQLVQSGAEVKKPGASVKVSCKASGYTFTNYNMHWVRQAPGQGLEWIGTIYPGNDDTSYNQKFKDKATLTADKSTSTAYMELSSLRSEDTAVYYCARGGYRAMDYWGQGTLVTVSSYPYDVPDYA
100 %: all assays above
